Test results: the supplement of paper PMC7125110
± gives the standard error. For some of these results: Fewer inactive variants are shown than the library holds.

B1: glmS ribozyme (parent)
chain: AUAAAAGCGCCAGAACUACAGAAAUGUAGUUGACGAGGAGGAGGUUUAUCGAAUUUUCGGCGGAUGCCUCCAAA

Assays:
Conditions in all cases: with glucosamine-6-phosphate
glucosamine-6-phosphate [1] = variants of: B1; assay: kcat; higher = faster cleavage; RNA array
Summary of the method: (§1)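 Tiles of sequenced MiSeq chips were imaged over ~14 h at 37 °C. On them, barcoded ribozyme variants had been transcribed in situ by E. coli RNA polymerase and were tracked via a hybridised Cy3 probe while glucosamine-6-phosphate (40 μM to 10 mM) in HEPES/KCl/Mg(OAc)2 buffer flowed in. Per-tile medians, normalised to baseline and to non-cleaving reference variants, were fit to one- or two-exponential decays for kobs, and weighted Michaelis–Menten fits gave kcat and KM.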

glucosamine-6-phosphate [2] = variants of: B1; assay: KM; higher = weaker cofactor use; RNA array
Summary of the method: as §1

glucosamine-6-phosphate [3] = variants of: B1; assay: self-cleavage kobs at 160 uM GlcN6P; higher = faster cleavage; RNA array
Summary of the method: as §1

glucosamine-6-phosphate [4] = variants of: B1; assay: self-cleavage kobs at 640 uM GlcN6P; higher = faster cleavage; RNA array
Summary of the method: as §1

glucosamine-6-phosphate [5] = variants of: B1; assay: self-cleavage kobs at 2500 uM GlcN6P; higher = faster cleavage; RNA array
Summary of the method: as §1

glucosamine-6-phosphate [6] = variants of: B1; assay: self-cleavage kobs at 10000 uM GlcN6P; higher = faster cleavage; RNA array
Summary of the method: as §1

glucosamine-6-phosphate [7] = variants of: B1; assay: self-cleavage kobs at 40 uM GlcN6P; higher = faster cleavage; RNA array
Summary of the method: as §1

Variant	kcat (glucosamine-6-phosphate [1]) [s⁻¹]	KM (glucosamine-6-phosphate [2]) [µM]	self-cleavage kobs at 160 uM GlcN6P (glucosamine-6-phosphate [3]) [s⁻¹]	self-cleavage kobs at 640 uM GlcN6P (glucosamine-6-phosphate [4]) [s⁻¹]	self-cleavage kobs at 2500 uM GlcN6P (glucosamine-6-phosphate [5]) [s⁻¹]	self-cleavage kobs at 10000 uM GlcN6P (glucosamine-6-phosphate [6]) [s⁻¹]	self-cleavage kobs at 40 uM GlcN6P (glucosamine-6-phosphate [7]) [s⁻¹]
U45C U56G	0.00225 ± 0.00059	4840 ± 1800	5.85e-05 ± 1.2e-05	0.000335 ± 4.1e-05	0.000677 ± 0.00011	0.00156 ± 0.00019	
A52U U57G	5.28e-05 ± 9.7e-06					4.88e-05 ± 7.6e-06	< 1e-05
C8U G51U C70U	1.2e-05 ± 2.2e-06						< 1e-05
C11U G40C	0.000197 ± 1.3e-05	2960 ± 470		3.93e-05 ± 1.6e-05	8.9e-05 ± 1.4e-05	0.000153 ± 1.9e-05	
A39U A53C	0.00528 ± 0.0015	2890 ± 1100	0.000314 ± 4.2e-05	0.000759 ± 8.9e-05	0.00228 ± 0.00027	0.00454 ± 0.00047	9.69e-05 ± 1.1e-05
G59U C68G	2.57e-05 ± 4.8e-06						
C10U	2.6e-05 ± 1.4e-06	499 ± 190		1.32e-05 ± 2e-06	2.39e-05 ± 1.5e-06	2.41e-05 ± 1e-06	< 1e-05
A42G C70U	0.0228 ± 0.01		0.00157 ± 0.00029	0.00975 ± 0.0019	0.0261 ± 0.01	0.0178 ± 0.0045	0.000696 ± 0.0001
U30G C58A	0.000335 ± 5.6e-05	2550 ± 710		7.21e-05 ± 8.3e-06	0.000154 ± 1.8e-05	0.000293 ± 5e-05	
G13C C16G U55A G60C C70G	1.82e-05 ± 7.2e-06						
A12U A52U	0.00174 ± 0.00012	4090 ± 490	7.11e-05 ± 2e-05	0.000233 ± 3.8e-05	0.000681 ± 9.8e-05	0.00123 ± 0.00011	
A14U C67A	0.00153 ± 0.00048	1240 ± 540	0.000172 ± 2.5e-05	0.000406 ± 5.4e-05	0.00137 ± 0.00031	0.00155 ± 0.00023	6.24e-05 ± 7.4e-06
U46G C68G	0.000103 ± 4e-06	678 ± 110		5.11e-05 ± 1.8e-05	7.97e-05 ± 1.8e-05	9.69e-05 ± 1.7e-05	
U46G C68A	3.1e-05 ± 2.2e-06					3.1e-05 ± 1.1e-05	
G59A	8.71e-05 ± 2.2e-06	1670 ± 170		2.2e-05 ± 1.9e-06	5.42e-05 ± 1.8e-06	7.42e-05 ± 1.2e-06	
C16A G66A	0.00167 ± 9.1e-05	4130 ± 370	6.8e-05 ± 3.1e-05	0.000223 ± 5e-05	0.000633 ± 0.00013	0.00118 ± 0.00018	
U31A U56C	0.00331 ± 0.0008	2630 ± 990	0.000186 ± 4.2e-05	0.00066 ± 0.00012	0.00115 ± 0.00025	0.00299 ± 0.00037	6.48e-05 ± 1.3e-05

Variant	kcat (glucosamine-6-phosphate [1]) [s⁻¹]	KM (glucosamine-6-phosphate [2]) [µM]	self-cleavage kobs at 160 uM GlcN6P (glucosamine-6-phosphate [3]) [s⁻¹]	self-cleavage kobs at 640 uM GlcN6P (glucosamine-6-phosphate [4]) [s⁻¹]	self-cleavage kobs at 2500 uM GlcN6P (glucosamine-6-phosphate [5]) [s⁻¹]	self-cleavage kobs at 10000 uM GlcN6P (glucosamine-6-phosphate [6]) [s⁻¹]	self-cleavage kobs at 40 uM GlcN6P (glucosamine-6-phosphate [7]) [s⁻¹]
A64G U65C C70G	1.52e-05 ± 6.7e-06						
A12U U49G	0.00213 ± 0.00037	2950 ± 780	9.35e-05 ± 1.5e-05	0.000495 ± 7.3e-05	0.000912 ± 0.00012	0.00167 ± 0.00018	3.38e-05 ± 7.4e-06
G66C C70G	0.000116 ± 4e-06	490 ± 56	3.35e-05 ± 1.2e-05	6.38e-05 ± 8.2e-06	9.88e-05 ± 1.2e-05	0.000111 ± 1.5e-05	
A39G G43U	0.000168 ± 1e-05	1170 ± 240		5.98e-05 ± 1.8e-05	0.000119 ± 3.3e-05	0.000149 ± 2.2e-05	
A15C	0.011 ± 0.00069	1940 ± 150	0.00074 ± 5.5e-05	0.00248 ± 0.0001		0.00932 ± 0.00026	0.000227 ± 4.1e-06
U45G C58G	6.11e-05 ± 9.3e-06	4730 ± 1900				4.17e-05 ± 1.1e-05	
A53U A64C	8.67e-05 ± 2.2e-05				9.3e-05 ± 1.6e-05	7.17e-05 ± 1.1e-05	
U69C C70U	0.000681 ± 0.00015	854 ± 350	0.000108 ± 2.4e-05	0.000254 ± 3.7e-05	0.000524 ± 7.1e-05	0.000743 ± 0.00018	5.3e-05 ± 1.3e-05
G41U U47A	0.000627 ± 0.00021		0.000127 ± 3.9e-05	0.000232 ± 5.2e-05	0.000656 ± 0.00012	0.000706 ± 0.00012	7.19e-05 ± 1.3e-05
G29U C68G	3.07e-05 ± 6.3e-06				3.95e-05 ± 1.1e-05		
A14G U47C	0.00925 ± 0.0028	1160 ± 520	0.00182 ± 0.00041	0.00236 ± 0.00055	0.0109 ± 0.0027	0.00833 ± 0.0014	0.000316 ± 5.1e-05
U30A A36G	< 1e-05			< 1e-05			< 1e-05
U31C G41A	9.11e-05 ± 9.7e-06			6.76e-05 ± 1.5e-05	9.23e-05 ± 1.6e-05	8.13e-05 ± 1.2e-05	
G37U C61U	< 1e-05						
A14G G32C C70U	0.000668 ± 0.00026				9.2e-05 ± 3.3e-05	0.000239 ± 4.4e-05	
A42G U45A	0.0167 ± 0.0051	303 ± 130	0.00634 ± 0.0022				0.00181 ± 0.00058
